Holding throughout (test): cell-based or functional assay
Assay [1] addresses LPA1 receptor (Homo sapiens, UniProt Q92633).
For assay [2], the target named is LPA1 receptor endogenous to Xenopus oocytes (Xenopus laevis).
Assay [3] addresses LPA2 receptor (Homo sapiens, UniProt Q9HBW0).
Assay [4] concerns the target T1, LPA3 receptor (wild-type) (human) (UniProt Q9UBY5).
T1 sequence (looked up): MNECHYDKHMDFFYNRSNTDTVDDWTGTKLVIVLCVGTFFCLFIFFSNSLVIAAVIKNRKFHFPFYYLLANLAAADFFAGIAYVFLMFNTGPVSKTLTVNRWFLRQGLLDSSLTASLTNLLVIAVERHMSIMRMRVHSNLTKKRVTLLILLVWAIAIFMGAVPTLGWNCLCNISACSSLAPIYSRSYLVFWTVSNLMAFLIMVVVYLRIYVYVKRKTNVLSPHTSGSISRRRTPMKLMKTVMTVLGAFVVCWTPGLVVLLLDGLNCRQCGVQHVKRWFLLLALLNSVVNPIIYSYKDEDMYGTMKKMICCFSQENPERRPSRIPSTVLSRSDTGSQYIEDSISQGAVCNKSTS

The target of assay [5] is LPA4 receptor (Homo sapiens, UniProt Q99677).
LPA4 receptor, sequence (Q99677 whole entry): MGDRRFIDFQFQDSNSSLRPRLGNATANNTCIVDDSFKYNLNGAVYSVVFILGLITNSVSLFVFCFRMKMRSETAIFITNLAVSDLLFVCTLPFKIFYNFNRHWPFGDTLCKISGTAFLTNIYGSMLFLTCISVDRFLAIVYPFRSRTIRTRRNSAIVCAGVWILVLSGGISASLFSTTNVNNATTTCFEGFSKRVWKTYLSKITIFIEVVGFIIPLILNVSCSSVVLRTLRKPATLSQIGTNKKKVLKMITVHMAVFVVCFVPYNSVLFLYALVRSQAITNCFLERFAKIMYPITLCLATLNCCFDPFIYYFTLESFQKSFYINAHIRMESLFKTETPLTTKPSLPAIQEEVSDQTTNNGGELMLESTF
Assay [6] addresses LPA5 receptor (Homo sapiens, UniProt Q9H1C0).

LPA2 receptor, sequence (Q9HBW0 whole entry): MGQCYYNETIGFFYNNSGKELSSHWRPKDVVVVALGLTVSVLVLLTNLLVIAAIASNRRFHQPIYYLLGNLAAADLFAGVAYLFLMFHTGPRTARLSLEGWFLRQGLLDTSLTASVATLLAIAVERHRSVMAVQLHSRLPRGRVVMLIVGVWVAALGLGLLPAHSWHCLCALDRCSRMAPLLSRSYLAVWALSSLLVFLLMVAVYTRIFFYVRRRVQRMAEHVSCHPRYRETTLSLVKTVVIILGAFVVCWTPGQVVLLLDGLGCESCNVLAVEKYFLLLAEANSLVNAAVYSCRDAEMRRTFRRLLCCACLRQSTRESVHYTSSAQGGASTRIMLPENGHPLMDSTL
LPA1 receptor, sequence (Q92633 whole entry): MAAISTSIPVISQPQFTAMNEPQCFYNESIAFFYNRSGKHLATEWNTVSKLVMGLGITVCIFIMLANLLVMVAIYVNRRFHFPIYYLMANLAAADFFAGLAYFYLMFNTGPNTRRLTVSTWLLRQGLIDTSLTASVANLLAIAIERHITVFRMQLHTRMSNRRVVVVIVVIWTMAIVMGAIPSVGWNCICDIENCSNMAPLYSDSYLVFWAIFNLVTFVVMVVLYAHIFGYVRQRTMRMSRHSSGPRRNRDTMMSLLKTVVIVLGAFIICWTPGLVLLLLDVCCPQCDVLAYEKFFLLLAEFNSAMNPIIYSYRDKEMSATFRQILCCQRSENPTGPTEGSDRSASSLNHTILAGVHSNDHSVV
LPA5 receptor, sequence (Q9H1C0 whole entry): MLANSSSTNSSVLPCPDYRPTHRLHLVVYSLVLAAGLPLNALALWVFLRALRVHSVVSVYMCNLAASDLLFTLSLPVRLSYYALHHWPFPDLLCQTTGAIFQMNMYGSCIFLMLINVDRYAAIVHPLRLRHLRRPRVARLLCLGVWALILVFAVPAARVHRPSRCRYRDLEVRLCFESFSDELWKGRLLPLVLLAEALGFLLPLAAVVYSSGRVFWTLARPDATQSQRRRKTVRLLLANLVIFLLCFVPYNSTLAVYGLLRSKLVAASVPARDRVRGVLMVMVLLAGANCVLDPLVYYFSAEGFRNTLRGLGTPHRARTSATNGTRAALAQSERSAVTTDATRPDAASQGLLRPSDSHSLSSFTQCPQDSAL

B1: glycolipoprotein gintonin isolated from ginseng (ligand)
chain 1: MGLTGKLICQTGIKSDGDVFHELFGTRPHHVPNITPANIQGCDLHEGEFGKVGSVVIWNYSIDGNAMIAKEEIVAIDEEDKSVTFKVVEGHLFEEFKSIVFSVHVDTKGEDNLVTWSIDYEKLNESVKDPTSYLDFLLSVTRDIEAHHLPK
chain 2: RSDYPWAMFALRLQWPAGFCEVNNACDTKSLLNTFTIHGLYPYNAKGTPALYCDGTAFDVNSVSDFLAEMHLAWPSHETNTEDIQFWEHEWKKHGRCSEALLKQTDYFRTALAFRKAFDIVGLLNQEGIYPNNDLYRPKMIKEAIKKHLNAVPEIDFTKNENSEYVLTDINVCVNQQATRFVDCPTDDATDDYRLKFVRLPSKMKFADPRTNSII
modifications: three N-glycosylation sites (positions not numbered in the text); bound sugars and lipids
As for B1, the EC50 of LPA receptor-mediated intracellular calcium increase in B103 cells amounted to 100 pM in assay [1], 4 pM in assay [3], 120 pM in assay [4] and 46 pM in assay [6]. Besides, the increase of intracellular calcium level in receptor-expressing B103 cells, gintonin 1 µg/ml (Fura-2AM) is 186 nM in assay [1], 208 nM in assay [3], 206 nM in assay [4] and 298 nM in assay [6]. Besides, the ED50 of gintonin-induced NMDA receptor-mediated inward currents in NMDA receptor-expressing Xenopus oocytes in assay [2] came out at 0.49 µg/mL. Moreover, the ED50 of gintonin-induced activation of BKCa K+ channels expressed in Xenopus oocytes in assay [2] turned out to be 0.71 µg/mL. Moreover, the increase of intracellular calcium level in receptor-expressing B103 cells upon treatment with gintonin (Fura-2AM) in assay [5] stood at 61.6 nM.

The values above are taken from patent US20140234868A1, “USE FOR GLYCOLIPOPROTEIN GINTONIN, ISOLATED AND IDENTIFIED FROM GINSENG, AS A NATURAL MEDICAL-PLANT DERIVED LIGAND” (KONKUK UNIVERSITY INDUSTRIAL COOPERATION CORP., priority 2011, published 2014).
